Values of other authors, collected in patent publication US20220033450A1, “VIRALLY EXPRESSED INHIBITORS OF PDZ DOMAINS, SUCH AS PICK1 AND USES THEREOF” (University of Copenhagen, priority 2018, published 2022).

Molecular target: T1, PDZ3 of PSD-95 (Homo sapiens, UniProt P78352)
T1 construct: specificity towards PDZ3 over PDZ 1 and 2 in PSD-95 (Toto et al. 2016)
Conditions: Toto et al. 2016; 'supposedly'

T1 sequence (P78352 313-393 limits assumed): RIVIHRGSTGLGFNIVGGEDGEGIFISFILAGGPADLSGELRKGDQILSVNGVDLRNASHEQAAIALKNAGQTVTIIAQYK

## YKQTSV
  specificity towards PDZ3 over PDZ 1 and 2 in PSD-95: > 15 fold
